# Data: doi:10.1101/2025.03.06.641801, “DMBT1 promotes SARS-CoV-2 infection and its SRCR-derived peptide inhibits SARS-CoV-2 infection” (bioRxiv, 2025)
# Target: the molecule itself
# Experiment: reverse-phase HPLC with TOF mass detection; peptide 7 of an earlier (old) synthetic batch in PBS; Agilent HPLC Infinity II 1290 with TOF 6230, 5-65% acetonitrile/water with 0.1% TFA, 40 C
protein,measurement,value
"CQGRVEVLYRGSWGTV (Free N-terminal cysteine; earlier synthetic batches formed disulfide-linked homodimers in PBS; also called Pep7) [peptide 7 (CQGRVEVLYRGSWGTV), SRCR-domain-derived peptide of DMBT1]",binding result,binds
